Data published in the DeepSol protein solubility set.

Assay: soluble on expression in E. coli; label from the status in PepcDB or PDB records

Row | Sequence | soluble on expression in E. coli
1 | AHHHHHHGSPKIGIIGGSGVYGIFEPKETVKVHTPYGRPSAPVEIGEIEGVEVAFIPRHGKYHEFPPHEVPYRANIWALHELGVERVIAVNAVGSLKEEYKPGDIVIIDQFIDFTKKREYTFYNGPRVAHISMADPFCPELRRIFIETAKELNLPVHEKGTYICIEGPRFSTRAESRMFRQFADVIGMTLVPEVNLARELGMCYVNISTVTDYDVWAEKPVDAQEVLRVMKENEEKVQKLLKRAIPKIPEERKCGCADVLKTMFV | not soluble
2 | MQERILFGTYTKKTSQGIYQGTLDTTAKTLTNDGLLAATQNPTYLALSAKDCLYSVDKEDDEGGIAAWQIDGQTAHKLNTVVAPGTPPAYVAVDEARQLVYSANYHKGTAEVMKIAADGALTLTDTVQHSGHGPRPEQDGSHIHYTDLTPDNRLAVIDLGSDKVYVYNVSDAGQLSEQSVLTMEAGFGPRHLVFSPDGQYAFLAGELSSQIASLKYDAQTGAFTQLGIVKTIPADYTAHNGAAAIRLSHDGHFLYVSNRGYNTLAVFAVTADGHLTLIQQISTEGDFPRDFDLDPTEAFVVVVNQNTDNATLYARDLTSGKLSLLQKDVTVPEGVCVRFLEHHHHHH | soluble
3 | MSEESNDDKKPTTKFELERETELRFEVEASQSVQLELLAGMAEIFGTELTRNKKFTFDAGAKVAVFTWHGCSLQLSGRTEVAYVSKDTPMLLYLNTHTALEQMRRQAEKEEERGPRVMVVGPTDVGKSTVCRLLLNYAVRLGRRPTYVELDVGQGSVSIPGTMGALYIERPADVEEGFSIQAPLVYHFGSTTPGTNIKLYNKITSRLADVFNQRCEVNRRASVSGCVINTCGWVKGYGYQALVHAASAFEVDVVVVLDQERLYNELKRDLPHFVRTVLLPKSGGVVERSKDFRRECRDERIREYFYGFRGCFYPHAFNVKFSDVKIYKVGAPTIPDSCLPLGMSQEDNQLKLVPVTPGRDMVHHLLSVSTAEGTEENLSETSVAGFIVVTSVDVEHQVFTVLSPAPRPLPKNFLLIMDIRFMDLK | soluble
4 | MEQDTQHVKPLQTKTDIHAVLASNGRIIYISANSKLHLGYLQGEMIGSFLKTFLHEEDQFLVESYFYNEHHLMPCTFRFIKKDHTIVWVEAAVEIVTTRAERTEREIILKMKVLEEETGHQSLNCEKHEIEPASPESTTYITDDYERLVENLPSPLCISVKGKIVYVNSAMLSMLGAKSKDAIIGKSSYEFIEEEYHDIVKNRIIRMQKGMEVGMIEQTWKRLDGTPVHLEVKASPTVYKNQQAELLLLIDISSRKKFQTILQKSRERYQLLIQNSIDTIAVIHNGKWVFMNESGISLFEAATYEDLIGKNIYDQLHPCDHEDVKERIQNIAEQKTESEIVKQSWFTFQNRVIYTEMVCIPTTFFGEAAVQVILRDISERKQTEELMLKSEKLSIAGQLAAGIAHEIRNPLTAIKGFLQLMKPTMEGNEHYFDIVFSELSRIELILSELLMLAKPQQNAVKEYLNLKKLIGEVSALLETQANLNGIFIRTSYEKDSIYINGDQNQLKQVFINLIKNAVESMPDGGTVDIIITEDEHSVHVTVKDEGEGIPEKVLNRIGEPFLTTKEKGTGLGLMVTFNIIENHQGVIHVDSHPEKGTAFKISFPKK | not soluble
5 | MKRLWKKVGSGVKNANYLKKSVEEVAKIEKGETKVVPPKYPTEKSREVSEEIKKELAMKNESLVENMNKMYIKSTDPVERWTSTKDLPTRESEFLHRNDPIWEYGFYEPPVERIPKDKLMFKEALEYLRFRQELLSDSSSPAQKKQAAEFVADHVVTSRVNAETLDDIYEYFRPFERKDKQKVVNRHALAALQDHVQGNSDERRILDEAKDVGKKIRHISNNTKFLDEYQRLEDEEKDKVREAIAQLRQEEHERLNKRLGQLGEIEKTAQEAMKKAVEEKKEK | not soluble
6 | MGSDKIHHHHHHMGSETEYGIHAPSAPGANATMMSARVIQAYAQLTRQRAAGGAETRWDYTDEEPLHDARGWTLERNQADPSQLTDQPPVLDAEAVALAYGREELEQDGEDETGSLLMNMVLGNGARLYVDHAHPEYSSPEVTNPLDAVAWDAAGDLVALSAVRRMAADPQLPPVNLYKNNTDNKSVSYGSHENYLMPRAVPFGDIVRGLTPFFITRQIMCGAGRVGLGQDSSRPGYQISQRADFFEAEVGLETTIRRPIINTRDEPHATADKYRRLHVIIGDANLSQAANYLKFGTTAMVLSLIEAGLAPRVEVHEPVAALQAVSHDTSLTATLRLLDGRRVTALDLQWMYHEAAAKLAQDTGVGDSVDGDGHTHALLERWAATLTDLDSDRTAAASSVEWLAKLSLLEGYRQRDGLQWNDARLGLVDLQWADVRPEKGLYYRMLARGRMDRIVADETIARAMTEPPSDTRAYFRGRCVSSFSKDVVGASWDSVIFDVPGHGRLQRVPTREPLRGTEALTGGLFARHKDTGSFLAELLGQTPPPPPA | not soluble
7 | GSVAVEDQPDVSAVLSAYNQQGDPTMYEEYYSGLKHFIECSLDCHRAELSQLFYPLFVHMYLELVYNQHENEAKSFFEKFHGDQECYYQDDLRVLSSLTKKEHMKGNETMLDFRTSKFVLRISRDSYQLLKRHLQEKQNNQIWNIVQEHLYIDIFD | soluble
8 | MGSDKIHHHHHHFEDLKPVIADSTKVTQAHTYKDINKLDIDVKDVNVEFREGKNYSVRYEGAKSSSPTVKKSGNQLQIKGRLSSHSIRFNGMSMYDDYYRNSDRNKMIITLPKDSKLDELNLKLSDSLLSQVNMTGIEADRVKASIHDTKLDLRDANFGNVELSAGDSDISMTNTVLSNGKLDLNDTDVRLDGGSLMQVAMNITEGDVDYNNLSIQGGNLRNNDGDIKMSNTQIQGGYKIDDTDGDILVSRVTVDGYRVQSNDGDVRLFEQTTSNGNVLEKNSNSDNVLDIISNDGDITVN | not soluble
9 | MVFMYIGTVMVEKYNKPHLTFGDQAAQLQLRGLIINNPDDCIGALEKIGYYRLSAYWYPFRKKKPKASRTTPFNYRLDEFEPKHTFEEAVALYRFDESLRRLLLEALGVIEIQLRTKIAYFAGKQDRFIHLKRELLDPIACCRVPKNSTQDSYQIWLHKYHKQIKRAGREDFIRHYQARYGNDIPIWIATEILDFGGVSKLFDFLPKQLKNQIALSFGAKEGTVVAGWIRNFNYIRNVSAHHSRLWNRLVITRIQAPNRNVVDPSIFHLADVKNRKSP | not soluble
10 | MGHHHHHHSHMQWSKEEEAAARKKVKENSAVRVLLEEQVKYEREASKYWDTFYKIHKNKFFKDRNWLLREFPEILPVDQKPEEKARESSWDHVKTSATNRFSRMHCPTVPDEKNHYEKSSGSSEGQSKTESDFSNLDSEKHKKGPMETGLFPGSNATFRILEVGCGAGNSVFPILNTLENSPESFLYCCDFASGAVELVKSHSSYRATQCFAFVHDVCDDGLPYPFPDGILDVILLVFVLSSIHPDRTLFI | not soluble
11 | MGSDKIHHHHHHMDLYQEELIKKISAITPFYIVGGTVRDHLLNRPGKDVDGIIPIPLEELEKHLREWGYHPLKIGAKHQTLSVFQQGQRMDINFFDGDLEADALRRDFTINAVFQDARTGELIDPLQGREDLENKLLRACGNPWERFREDPVRILRMVRFSVQYGMDIEEDTFRSAQSLLPELKHVASERTSEELGRILTLADPAAGIRLLNELGYLTLYLPELVRLQGLAQNRYHTKDAWEHTLQVLANTPPQPILRLAGLFHDLGKWEVASRECYVWGKCWAEDKGYYIGEYRILGRQLHRYHGDYVEVHGTRLDHYPQVIQVKRIRKDPSCRRGFEWVRDGKRHFLGHEKESGRLTRQILARFRLAMVLGKEGEGGEKELLWLIENHMSGTLSFIAELRGEGSALQLNQKVRQFVWEKGWDGRSYRLTRVDQLLELWRADFYGGKKREPKEEQIFEELLEKLHQTNKAVQKRHQELEWGELEKFAQEHKIKGREWGDFKESLRKTRVVSVDWIPLTTGFLEKEYKHFKGRNYAKRERE | not soluble
12 | MNKGRIIQVMGPVVDIQFESGQLPDIYNAITIERPQGGTLTVEAAVHLGDNVVRCVAMASTDGLVRGLEAVDTGAPISVPVGKATLGRVFNVLGEPIDEQGEVNAEERHPIHRPAPEFEELSTADEILETGIKVIDLLAPYAKGGKIGLFGGAGVGKTVLIQELINNVAQEHGGLSVFAGVGERTREGNDLYHEMKDSGVISKTSMVFGQMNEPPGARLRVALTGLTMAEYFRDREGQDVLLFIDNIFRFTQAGSEVSALLGRMPSAVGYQPTLATEMGQLQERITSTKKGSITSIQAIYVPADDYTDPAPATTFAHLDATTNLERKLAEMGIYPAVDPLASTSRILSPAVVGEEHYRVARGVQQVLQRYNDLQDIIAILGMDELSDEDKLIVARARKIQRFLSQPFHVAEQFTGMPGKYVPVKETVRGFKEILEGKHDNLPEEAFYMVGTIDEAVEKAKKL | soluble
